Assay results reported in US20240166727A1 (CEINGE BIOTECNOLOGIE AVANZATE SCARL, published 2024).

Target: Spike glycoprotein on SARS-COV-2 viral particles (Italian Variant, Genbank MT682732.1, GISAID EPI_ISL_477204) (SARS-COV-2, UniProt P0DTC2 14-1273)
Assay: cell-based or functional assay

B1: D3 mAb (fully human IgG4 anti-Spike RBD antibody) (antibody, V domains shown)
VH: QVQLVQSGAEVKKPGATVKISCKVSGYTFTDYYMHWVQQAPGKGLEWMGLVDPEDGETIYAEKFQGRVTITADTSTDTAYMELSSLRSEDTAVYYCARGAKATLGLWGQGTLVTVSR
VL: ELTQDPAVSVALGQTVRITCQGDSLRSYYASWYQQKPGQAPVLVIYGKNNRPSGIPDRFSGSSSGNTASLTITGAQAEDEADYYCNSRDSSGNHVVFGGGTKLTVL
- IC50 of inhibition of viral infectivity (VERO E6 cells, 0.5 MOI): 15 µg/mL
